Experiment: label from the status in PepcDB records

Sequence: MRILDYDKVIERILEFIREKGNNGVVIGISGGVDSATVAYLATKALGKEKVLGLIMPYFENKDVEDAKLVAEKLGIGYKVINIKPIVDSFVENLELNLDRKGLGNIMSRTRMIMLYAHANSLGRIVLGTSNRSEFLTGYFTKWGDGASDYAPIINLYKTEVWEIAKRIGVPERIVKKKPSAGLWEGQTDEDELGISYNLLDEILWRMIDLKIGKEEIAKDLGIPLSLVERVEELIKKSEHKRRLPIGPSFEDLIVGP
- protein production: not failed

Sequence: MEIKPGLSALVTGGASGIGRALCLALAEKGVFVTVADFSEEKGQETTSLVREANAKFHQGLSFPSAIFVKCDVTNRGDLLAAFDKHLATFGTLDICINNAGISTPLRFDKDDTDGSKSWKHTINVDLIAVVEGTQLAIKAMKAKQKPGVIINMGSAAGLYPMPVDPIYAASKAGVVLFTRSLAYYRRQGIRINVLCPEFIKTDLAEAIDASILESIGGYMSMDMLIKGAFELITDEKKAGACLWITKRRGLEYWPTPMEETKYLVGSSSRKRPSFKVSTKIEFPQSFEKMIVHTLSHKFRSATRIVRAPLQLPIGPHQVLLKIIYAGVNASDVNFSSGRYFTGGSPKLPFDAGFEGVGLIAAVGESVKNLEVGTPAAVMTFGAYSEYMIVSSKHVLPVPRPDPEVVAMLTSGLTALIALEKAGQMKSGETVLVTAAAGGTGQFAVQLAKLSGNKVIATCGGSEKAKLLKELGVDRVIDYKSENIKTVLKKEFPKGVNIIYESVGGQMFDMCLNALAVYGRLIVIGMISQYQGEKGWEPAKYPGLCEKILAKSQTVAGFFLVQYSQLWKQNLDKLFNLYALGKLKVGIDQKKFIGLNAVADAVEYLHSGKSTGKVVVCIDPAFEQKTSRL
- protein production: failed

Sequence: MPLIPAVPGLADRRMYVFLLLLTLGSGMSFQGWNTLYTNFAVHGAGLSGAENGLVQSIREVPGLLTFGVIPLLLLLREHRLAALAVLVTGVGVMTAGLLPTLWGVVATTLVMSFGFHYFEAVNQSLILQYFDVRTAPLVMGRLRGLAAGGNLVMGALVYVLADLFAFSTLFCIMGAFATVAGAWALTRDPSDPARPAQRRSMVLRRRYWLFYLLTILAGARRQIFTVFSVFLLVEHFGYGVREVALLFIVNNAVNWFLNPLIGRAVNRFGEQHLLTVEYSVLVLVFLGYTVTDSPLVAAFLYVVDHIFFNFAIAIRTFFQKIADPADIAPSMAMSVAINHIAAVVMPVCGGMLWMLDYRIPFYVGAGLAVASLLATQRIGAELRLQGVKPC
- protein production: failed

Sequence: MSARSLRQEALNLPNAITATRIALIPVFLWFTFYESRVDSFIAAVLYAVTGATDFLDGWVARRKNLVTVIGKFLDPLADKLIVMAALVMLVHLGRVAAWVCIVVLAREFIVTGLRTIAMSEGIVIAAGQEGKHKTAFQVAGITFLLLHYTYPIDAIFFSFDLDANRVGTWLVYISLFFSVWSAVSYFANFIRAVYRREGEAQAAEDVRPNRRTSRG
- protein production: failed

Sequence: MTRRLVLMLALLSGSAGASGSFFTLLQTWQGLGHAPIAVSPDGRLLALTRPAPRTPAYAPYDTRIEVRDTAKMRRLYRVPAANGDGKTLLFSPDSRTLWSAHSGTLHYDAWTGKLADNREGSDGAGVSALAFAPGGQSYVLAGVNAVGQTRLVRVGVSPLRSFWPVTRPTAGDGMQPNWTSALAFSPDGRWVASGSVGGGVILRSSVTGRPLRVLADEPGQAPHRARLVDLLFLSPARLLSASADGQVRLWDAATGRALASLPCGERLGAVVQLPGGTRVVAATSRGLQLIETSGGRLRRLETVGGDYADVGVSAAGELWAITRGGTLSHWRLLSR
- protein production: failed

Sequence: MLLGSCWRIARGVETVPYPWPKWLPIPVLATTVGVAAVVIGVRQLGLLQPSELSLYDFYVRSQPPRDPDSRILTVLVTEQDIQAQKTWPLPDATVAELLTRLNAASPRAIGLDIFRDLPQPPGHDELQNMIRINPRIIPVCKSPGETVEQPEVPPPPSIPTAQVPERVGFADIPLDSDGVIRRNLFVINNPKAQRCTTPFSFALMLALRYLEQDPSQTIKLDDKGLTLNDVHFPLLTSDAGGYVAVDDRGMQTLLKYRSRTAVGPTVSLTDVLTGRVSEDLIRDRVVLIGVSAPSIKDTFLTPYSGSDAVTQQMPGVVVHGQMVSQFLSAALEGEGPIWYWPVPLVLGWILLWAGVGSILGWWLRQPLWLGGAVVGGIIVLFGGGFGIFVMASGWIPVVPPAIALVLSSVGMVGYVSYQAQQEQKSFREKVQEQEKALALLRSLMAEDTAALNAALREPTEITGKPRSLLSGRYKIQKVLGSGGFGRTYLAQDTQRPGNPLCVVKHLRPGRTDERFMQVARRLFNTEAEILEKLGRHDQIPLLLAYVEENREFYLVQEFIDGVSLSEELKRKHTEAEAIQLLREILEVLNFVHSHYVIHRDIKPDNIIRRASDRKLVLIDFGAVKQIQPQEAERTQGSTVVIGTMGYAPPEQLSGQPTLSSDIYAVGMIVLQALTGIKPRDLPRDPRTGEVDWQQCVTVSEGLAVVLNKMVKFNFSDRYPSAKEALQDARRLGTPAASVS
- protein production: failed
